Laboratory results published in the supplement of paper PMC9732359.
± gives the uncertainty stated by the source.

Assay: protein stability index of a GFP-peptide fusion (yeast GPS) (PSI 1-4); higher = more stable; sorted into four equal gates, so the index is relative within each strain
Summary of the method: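 The protein stability index of a peptide was calculated by multiplying its read frequency in each gate by that gate's number and adding the products. The peptides were tiled 17-residue stretches of yeast proteins, fused downstream of GFP on a Cherry-expressing plasmid and carried in yeast as a pooled library. Mid-log cultures in leucine-free medium were sorted into four equal gates by GFP/Cherry ratio, and each gate's plasmids were PCR-amplified and Illumina-sequenced.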

NKEYTLVHGIFGAKMSR [SIN4]
protein stability index (doa10∆): 2.75 ± 0.12 | protein stability index (pdr5∆): 2.98 ± 0.13 | protein stability index (san1∆): 3.15 ± 0.19 | protein stability index (ubr1∆): 3.09 ± 0.11

YDVLHDVFTINPHQKDQ [YML103C/NUP188]
protein stability index (pdr5∆): 2.15 ± 0.098 | protein stability index (san1∆): 2.12 ± 0.13 | protein stability index (ubr1∆): 2.61 ± 0.25

NSNTNLNSLSPQAILAK [SWI1]
protein stability index (doa10∆): 2.28 ± 0.046 | protein stability index (pdr5∆): 1.93 ± 0.033 | protein stability index (san1∆): 1.92 ± 0.054 | protein stability index (ubr1∆): 2.02 ± 0.03

EAVVDQDVQRTCILHGP [FAS1]
protein stability index (doa10∆): 3.32 ± 0.11 | protein stability index (pdr5∆): 3.24 ± 0.087 | protein stability index (san1∆): 3.17 ± 0.078 | protein stability index (ubr1∆): 3.38 ± 0.051

LSSGENRYAFSQPTNST [SMC4]
protein stability index (doa10∆): 3.22 ± 0.14 | protein stability index (pdr5∆): 2.96 ± 0.11 | protein stability index (ubr1∆): 2.85 ± 0.11

QPAKEKGVTEKDAVDYS [RRP6]
protein stability index (doa10∆): 3.2 ± 0.21 | protein stability index (pdr5∆): 3.15 ± 0.17 | protein stability index (san1∆): 3.27 ± 0.091 | protein stability index (ubr1∆): 3.42 ± 0.062

LTAIPILLEPIYEVDIT [SNU114]
protein stability index (doa10∆): 2.24 ± 0.047 | protein stability index (pdr5∆): 1.75 ± 0.041 | protein stability index (san1∆): 1.94 ± 0.054 | protein stability index (ubr1∆): 2.19 ± 0.038

MTEHETKDKAKKIREIY [BRR2]
protein stability index (doa10∆): 2.6 ± 0.17 | protein stability index (pdr5∆): 2.69 ± 0.11 | protein stability index (san1∆): 2.27 ± 0.18 | protein stability index (ubr1∆): 2.35 ± 0.1

NRLEIKYHNDLIEKEIQ [SMC1]
protein stability index (doa10∆): 2.35 ± 0.18 | protein stability index (pdr5∆): 2.51 ± 0.083 | protein stability index (ubr1∆): 2.42 ± 0.13

NEQEEKSEEVKAEDDTG [RPC37]
protein stability index (doa10∆): 3.2 ± 0.17 | protein stability index (san1∆): 2.94 ± 0.2 | protein stability index (ubr1∆): 2.85 ± 0.17

PNRIKLSKEVPFSYLID [SRB5]
protein stability index (doa10∆): 2.44 ± 0.062 | protein stability index (pdr5∆): 2.15 ± 0.058 | protein stability index (san1∆): 1.98 ± 0.1 | protein stability index (ubr1∆): 2.12 ± 0.06

NQSTIYEDEELSRAEYD [LIN1]
protein stability index (doa10∆): 3.12 ± 0.086 | protein stability index (pdr5∆): 3.2 ± 0.087 | protein stability index (san1∆): 3.15 ± 0.058 | protein stability index (ubr1∆): 3.27 ± 0.058

TIVGVKFNNGVVIAADT [PUP1]
protein stability index (doa10∆): 1.43 ± 0.072 | protein stability index (pdr5∆): 2.55 ± 0.14 | protein stability index (ubr1∆): 2.55 ± 0.17

SNSTPNANQQFLPFNNS [SWI1]
protein stability index (doa10∆): 3.25 ± 0.072 | protein stability index (pdr5∆): 3.19 ± 0.058 | protein stability index (san1∆): 2.96 ± 0.059 | protein stability index (ubr1∆): 2.94 ± 0.052

IYAGYDDRYGYQLYTSN [PRE9]
protein stability index (doa10∆): 2.99 ± 0.16 | protein stability index (pdr5∆): 2.14 ± 0.25 | protein stability index (san1∆): 1.86 ± 0.17 | protein stability index (ubr1∆): 2.34 ± 0.16

FLLLAVNKYGLRADKLY [ISW2]
protein stability index (doa10∆): 3.05 ± 0.078 | protein stability index (pdr5∆): 2.5 ± 0.075 | protein stability index (san1∆): 2.62 ± 0.055 | protein stability index (ubr1∆): 2.93 ± 0.059

VHSSSPSTSSNMDVGNP [GAL11]
protein stability index (doa10∆): 2.89 ± 0.071 | protein stability index (pdr5∆): 2.75 ± 0.066 | protein stability index (san1∆): 2.69 ± 0.075 | protein stability index (ubr1∆): 3.14 ± 0.054

FSWISVVNDLVGEKLVV [SIR3]
protein stability index (doa10∆): 3.42 ± 0.13 | protein stability index (pdr5∆): 2.58 ± 0.14 | protein stability index (san1∆): 3.26 ± 0.072 | protein stability index (ubr1∆): 2.84 ± 0.14

SPSYSPTSPAYSPTSPS [RPO21]
protein stability index (doa10∆): 2.93 ± 0.05 | protein stability index (pdr5∆): 2.85 ± 0.052 | protein stability index (san1∆): 2.81 ± 0.048 | protein stability index (ubr1∆): 3.08 ± 0.032

EVGPWGSARTRWEMEAF [FAS2]
protein stability index (doa10∆): 1.23 ± 0.077 | protein stability index (pdr5∆): 1.62 ± 0.25 | protein stability index (ubr1∆): 1.6 ± 0.13

VAARAEILRIHSRKMNL [RPT6]
protein stability index (doa10∆): 2.59 ± 0.056 | protein stability index (pdr5∆): 2.53 ± 0.054 | protein stability index (san1∆): 2.5 ± 0.081 | protein stability index (ubr1∆): 2.64 ± 0.068

SAEYLQMSLEANVVDIT [YJR042W/NUP85]
protein stability index (doa10∆): 1.8 ± 0.064 | protein stability index (pdr5∆): 2.19 ± 0.065 | protein stability index (san1∆): 2.05 ± 0.14 | protein stability index (ubr1∆): 2.38 ± 0.058

EIEVDEMEVDAEGEEVE [RPN1]
protein stability index (doa10∆): 3.52 ± 0.084 | protein stability index (pdr5∆): 3.68 ± 0.12 | protein stability index (san1∆): 3.52 ± 0.082 | protein stability index (ubr1∆): 3.49 ± 0.067

MAPVKSQESINQKLALV [RPL30]
protein stability index (doa10∆): 2.05 ± 0.11 | protein stability index (pdr5∆): 2.53 ± 0.14 | protein stability index (san1∆): 2.18 ± 0.13 | protein stability index (ubr1∆): 2.25 ± 0.061

FPRDGKAPEAEQVLSAA [RPL13B]
protein stability index (doa10∆): 3.3 ± 0.093 | protein stability index (pdr5∆): 2.9 ± 0.086 | protein stability index (san1∆): 2.9 ± 0.069 | protein stability index (ubr1∆): 3 ± 0.045

TNIRRIIQDNISPRLVV [RRP46]
protein stability index (doa10∆): 1.58 ± 0.037 | protein stability index (pdr5∆): 1.69 ± 0.041 | protein stability index (san1∆): 1.75 ± 0.07 | protein stability index (ubr1∆): 1.82 ± 0.03

RENMICKIDFQKNFMDQ [RRI2]
protein stability index (doa10∆): 2.9 ± 0.13 | protein stability index (pdr5∆): 2.96 ± 0.11 | protein stability index (san1∆): 3.19 ± 0.067 | protein stability index (ubr1∆): 3.24 ± 0.081

LQRKDYTSIVQCCEFMT [YML103C/NUP188]
protein stability index (doa10∆): 1.48 ± 0.059 | protein stability index (pdr5∆): 1.62 ± 0.048 | protein stability index (san1∆): 2.05 ± 0.079 | protein stability index (ubr1∆): 1.9 ± 0.044

TDLTNNSTDGAKITEIG [YIL149C/MLP2]
protein stability index (doa10∆): 3.35 ± 0.087 | protein stability index (pdr5∆): 3.17 ± 0.08 | protein stability index (san1∆): 3.07 ± 0.058 | protein stability index (ubr1∆): 3.28 ± 0.055

SKLLREHGYQSRGFEVM [RPB2]
protein stability index (doa10∆): 3.14 ± 0.13 | protein stability index (pdr5∆): 2.71 ± 0.16 | protein stability index (san1∆): 2.9 ± 0.14 | protein stability index (ubr1∆): 2.61 ± 0.19

NLNAFVDFSKYNTNFNL [SRP72]
protein stability index (doa10∆): 3.19 ± 0.12 | protein stability index (pdr5∆): 2.81 ± 0.12 | protein stability index (san1∆): 3.09 ± 0.048 | protein stability index (ubr1∆): 2.17 ± 0.08

SNEEQRNLDSATLKEIK [SMC3]
protein stability index (doa10∆): 3.5 ± 0.14 | protein stability index (pdr5∆): 3.21 ± 0.13 | protein stability index (san1∆): 3.46 ± 0.084 | protein stability index (ubr1∆): 3.48 ± 0.16

EENNYQYGYSGSSAGMN [SNF6]
protein stability index (doa10∆): 2.22 ± 0.053 | protein stability index (pdr5∆): 2.16 ± 0.077 | protein stability index (san1∆): 1.94 ± 0.12 | protein stability index (ubr1∆): 2.5 ± 0.065

KVTSTLLEQDTSTEKLY [PRE9]
protein stability index (doa10∆): 2.7 ± 0.056 | protein stability index (pdr5∆): 3 ± 0.066 | protein stability index (san1∆): 2.65 ± 0.063 | protein stability index (ubr1∆): 2.63 ± 0.08

VLAKRMANLSQIYTQRA [SCL1]
protein stability index (doa10∆): 2.52 ± 0.12 | protein stability index (pdr5∆): 3 ± 0.27 | protein stability index (san1∆): 2.34 ± 0.12 | protein stability index (ubr1∆): 2.69 ± 0.091

DELILPLPSHALTVQEV [YDL116W/NUP84]
protein stability index (doa10∆): 2.4 ± 0.038 | protein stability index (pdr5∆): 2.56 ± 0.036 | protein stability index (san1∆): 2.15 ± 0.057 | protein stability index (ubr1∆): 2.44 ± 0.025

YELEFDTPTSGKHNLTI [BRR2]
protein stability index (doa10∆): 3.1 ± 0.068 | protein stability index (pdr5∆): 3.04 ± 0.076 | protein stability index (san1∆): 3.18 ± 0.061 | protein stability index (ubr1∆): 3.23 ± 0.065

TNDGIERYSDKYLKKRK [RPC31]
protein stability index (doa10∆): 3.23 ± 0.13 | protein stability index (pdr5∆): 2.98 ± 0.18 | protein stability index (san1∆): 3.43 ± 0.15 | protein stability index (ubr1∆): 2.88 ± 0.091

SRPASYGYFSVGKRVPI [SIR4]
protein stability index (doa10∆): 2.31 ± 0.19 | protein stability index (pdr5∆): 2.14 ± 0.11 | protein stability index (san1∆): 2.15 ± 0.13

KCTAEGIKVSLLGIFDD [RPC25]
protein stability index (doa10∆): 2.19 ± 0.077 | protein stability index (pdr5∆): 1.69 ± 0.088 | protein stability index (san1∆): 2.27 ± 0.099 | protein stability index (ubr1∆): 2.04 ± 0.061

KEKIEKLSKSATESIKN [SMC1]
protein stability index (doa10∆): 3.28 ± 0.12 | protein stability index (pdr5∆): 2.99 ± 0.21 | protein stability index (san1∆): 2.97 ± 0.079 | protein stability index (ubr1∆): 3.07 ± 0.072

PGMPNMPGMPNMPGMPK [SRP54]
protein stability index (doa10∆): 3.37 ± 0.15 | protein stability index (pdr5∆): 3.22 ± 0.095 | protein stability index (san1∆): 3.21 ± 0.25 | protein stability index (ubr1∆): 3.3 ± 0.071

QYMEELADDDEERFSEL [RPL5]
protein stability index (doa10∆): 1.12 ± 0.14 | protein stability index (pdr5∆): 1.14 ± 0.18

DNGLGPLKYAPHLPFSK [SWI3]
protein stability index (doa10∆): 3.13 ± 0.058 | protein stability index (pdr5∆): 3.22 ± 0.069 | protein stability index (san1∆): 2.85 ± 0.07 | protein stability index (ubr1∆): 3.21 ± 0.058

DEATVPNTRDAESEAIT [SWI3]
protein stability index (doa10∆): 3.09 ± 0.077 | protein stability index (pdr5∆): 3.15 ± 0.06 | protein stability index (san1∆): 3.18 ± 0.066 | protein stability index (ubr1∆): 3.23 ± 0.052

KKGESEKDASGKPSFVF [YOR098C/NUP1]
protein stability index (doa10∆): 2.19 ± 0.066 | protein stability index (pdr5∆): 2.32 ± 0.1 | protein stability index (san1∆): 2.32 ± 0.15 | protein stability index (ubr1∆): 2.23 ± 0.073

SNRLHPPDIHPNLGPQL [GRR1]
protein stability index (doa10∆): 3.12 ± 0.074 | protein stability index (pdr5∆): 3.09 ± 0.059 | protein stability index (san1∆): 3.01 ± 0.054 | protein stability index (ubr1∆): 2.98 ± 0.049

NALDKLRNNLNSLIEEI [YCG1]
protein stability index (doa10∆): 3.22 ± 0.12 | protein stability index (pdr5∆): 3.26 ± 0.1 | protein stability index (san1∆): 2.27 ± 0.21 | protein stability index (ubr1∆): 3.08 ± 0.092

ERNASEVRDATLNNIFR [GRR1]
protein stability index (doa10∆): 3.36 ± 0.17 | protein stability index (san1∆): 3.41 ± 0.19 | protein stability index (ubr1∆): 3.53 ± 0.16

KGLVSQQLDSFNQFVDY [RPB2]
protein stability index (doa10∆): 2.64 ± 0.077 | protein stability index (pdr5∆): 2.52 ± 0.1 | protein stability index (san1∆): 2.41 ± 0.078 | protein stability index (ubr1∆): 2.6 ± 0.066

IILGTNLYDGAEHKYMP [BRR2]
protein stability index (doa10∆): 3.06 ± 0.12 | protein stability index (pdr5∆): 3.47 ± 0.096 | protein stability index (san1∆): 3.6 ± 0.087 | protein stability index (ubr1∆): 3.27 ± 0.1

AAQIFGSYNAFEPASRL [COR1]
protein stability index (doa10∆): 2.33 ± 0.07 | protein stability index (pdr5∆): 1.55 ± 0.064 | protein stability index (san1∆): 1.41 ± 0.16 | protein stability index (ubr1∆): 1.51 ± 0.082
